# B1: Protein PTHB1 (Homo sapiens), Q3SYG4 (parent)
# chain: MSLFKARDWWSTILGDKEEFDQGCLCLANVDNSGNGQDKIIVGSFMGYLRIFSPHPAKTGDGAQAEDLLLEVDLRDPVLQVEVGKFVSGTEMLHLAVLHSRKLCVYSVSGTLGNVEHGNQCQMKLMYEHNLQRTACNMTYGSFGGVKGRDLICIQSMDGMLMVFEQESYAFGRFLPGFLLPGPLAYSSRTDSFLTVSSCQQVESYKYQVLAFATDADKRQETEQQKLGSGKRLVVDWTLNIGEQALDICIVSFNQSASSVFVLGERNFFCLKDNGQIRFMKKLDWSPSCFLPYCSVSEGTINTLIGNHNNMLHIYQDVTLKWATQLPHIPVAVRVGCLHDLKGVIVTLSDDGHLQCSYLGTDPSLFQAPNVQSRELNYDELDVEMKELQKIIKDVNKSQGVWPMTEREDDLNVSVVVSPNFDSVSQATDVEVGTDLVPSVTVKVTLQNRVILQKAKLSVYVQPPLELTCDQFTFEFMTPDLTRTVSFSVYLKRSYTPSELEGNAVVSYSRPTDRNPDGIPRVIQCKFRLPLKLICLPGQPSKTASHKITIDTNKSPVSLLSLFPGFASQSDDDQVNVMGFHFLGGARITVLASKTSQRYRIQSEQFEDLWLITNELILRLQEYFEKQGVKDFACSFSGSIPLQEYFELIDHHFELRINGEKLEELLSERAVQFRAIQRRLLARFKDKTPAPLQHLDTLLDGTYKQVIALADAVEENQGNLFQSFTRLKSATHLVILLIALWQKLSADQVAILEAAFLPLQEDTQELGWEETVDAAISHLLKTCLSKSSKEQALNLNSQLNIPKDTSQLKKHITLLCDRLSKGGRLCLSTDAAAPQTMVMPGGCTTIPESDLEERSVEQDSTELFTNHRHLTAETPRPEVSPLQGVSE
# partner: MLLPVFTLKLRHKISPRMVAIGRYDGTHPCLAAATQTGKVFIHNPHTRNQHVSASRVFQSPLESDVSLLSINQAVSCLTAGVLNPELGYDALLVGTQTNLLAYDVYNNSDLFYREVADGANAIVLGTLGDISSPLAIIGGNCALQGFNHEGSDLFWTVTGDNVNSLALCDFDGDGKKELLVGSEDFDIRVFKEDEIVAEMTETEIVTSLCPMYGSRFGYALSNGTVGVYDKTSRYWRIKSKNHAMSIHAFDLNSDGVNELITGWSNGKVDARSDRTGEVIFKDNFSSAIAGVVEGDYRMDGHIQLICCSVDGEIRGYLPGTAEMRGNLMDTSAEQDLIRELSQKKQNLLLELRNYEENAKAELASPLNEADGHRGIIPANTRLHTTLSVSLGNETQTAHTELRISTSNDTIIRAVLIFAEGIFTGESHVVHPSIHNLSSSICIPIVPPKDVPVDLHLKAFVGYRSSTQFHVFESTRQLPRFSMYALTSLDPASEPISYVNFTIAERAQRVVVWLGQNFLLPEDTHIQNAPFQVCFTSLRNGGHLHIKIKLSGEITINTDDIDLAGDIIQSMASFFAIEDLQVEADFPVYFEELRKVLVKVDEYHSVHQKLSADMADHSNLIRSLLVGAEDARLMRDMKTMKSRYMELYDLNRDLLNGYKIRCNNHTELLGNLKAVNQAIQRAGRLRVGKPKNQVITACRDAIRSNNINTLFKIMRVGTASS
# Variants of: B1
# Conditions: with bbs2_human BBS2, Q9BXC9
row,Variant,effect of a mutation on the interaction
1,K809E,with no effect
2,K809A,with no effect
3,R824K,with no effect
4,R824W,disrupting interaction strength
5,R824A,with no effect
6,R824E,with no effect
7,L779K,with no effect
8,K810A,with no effect
9,K810E,with no effect
10,L825K,with no effect
11,L825E,with no effect
12,L825A,with no effect
13,D830K,with no effect
14,D830A,with no effect
15,D830E,with no effect
16,S806K,with no effect
17,S806E,with no effect
18,S806A,with no effect
19,A832K,with no effect
20,A832E,with no effect
21,I812E,with no effect
22,I812A,with no effect
23,I812K,with no effect

row,Variant,effect of a mutation on the interaction
1,L780K,with no effect
2,L780A,with no effect
3,L780E,with no effect
4,T829K,with no effect
5,T829A,with no effect
6,T829E,with no effect
7,N794A,with no effect
8,N794E,with no effect
9,N794K,with no effect
10,S820A,with no effect
11,S820E,with no effect
12,S820K,with no effect
13,D804F,disrupting interaction strength
14,D804A,with no effect
15,D804E,with no effect
16,D804K,with no effect
17,S797K,with no effect
18,S797E,with no effect
19,S797A,with no effect
20,L793K,with no effect
21,L793A,with no effect
22,L793E,with no effect
23,L799E,with no effect

row,Variant,effect of a mutation on the interaction
1,L799A,with no effect
2,L799K,with no effect
3,E790K,with no effect
4,E790A,with no effect
5,Q791S,disrupting interaction strength
6,Q791A,with no effect
7,Q791E,with no effect
8,Q791L,disrupting interaction strength
9,Q791K,with no effect
10,S785K,with no effect
11,S785E,with no effect
12,S785A,disrupting interaction strength
13,K781A,with no effect
14,K781E,with no effect
15,K786E,with no effect
16,K786A,with no effect
17,M837A,with no effect
18,M837K,disrupting interaction strength
19,M837E,with no effect
20,H811K,with no effect
21,H811E,with no effect
22,H811A,with no effect
23,P834E,with no effect

row,Variant,effect of a mutation on the interaction
1,P834A,with no effect
2,P834K,with no effect
3,T805E,with no effect
4,T805K,with no effect
5,T805A,with no effect
6,T805I,disrupting interaction strength
7,N800K,with no effect
8,N800A,with no effect
9,N800E,with no effect
10,S787E,with no effect
11,S787A,with no effect
12,S787K,with no effect
13,L827K,with no effect
14,L827E,with no effect
15,L827A,disrupting interaction strength
16,V838K,with no effect
17,V838E,with no effect
18,V838A,disrupting interaction strength
19,C783E,with no effect
20,C783A,with no effect

# From IntAct's records for PubMed 29039417
